In general, pKd refers to the negative decadic logarithm of the Kd, by convention in mol/L. A higher pKd goes with a low Kd.

The values that follow come from publication doi:10.1101/2022.07.07.22277364.

Common to all, as to assay: BLI
(Biolayer interferometry detects binding as a change in optical thickness at a sensor tip.)

Experiment [1] addresses truncated human ACE2 (residues 19-613 with a C-terminal AviTag and 6xHis-tag), biotinylated (human) (UniProt Q9BYF1).
The target of experiment [2] is human ACE2 polymorphism S19P (rs73635825) (human) (UniProt Q9BYF1).
Experiment [3] addresses human ACE2 polymorphism K26R (rs4646116) (human) (UniProt Q9BYF1).

pKd: −log10 of the molar value.

On to “SARS-CoV-2 RBD Gamma (P.1) (from UniProt P0DTC2) (domain or fragment)”, for which, in experiment [1], the t1/2 was found to be 3.58 min. In the case of “SARS-CoV-2 ancestral RBD recombinant protein (from UniProt P0DTC2) (domain or fragment)”, the t1/2 in experiment [1] was 1.39 min. The same measure, in the same setting: next, “SARS-CoV-2 RBD Alpha (B.1.1.7), N501Y (from UniProt P0DTC2) (domain or fragment)”: 5.49 min. Regarding “SARS-CoV-2 Omicron BA.2 RBD (from UniProt P0DTC2) (domain or fragment)”, the figures for the pKd in experiment [2] and in experiment [3] were 8.30 and 8.29, respectively. Moreover, the t1/2 in experiment [1] amounted to 2.7 min. On to “SARS-CoV-2 RBD Beta (B.1.351) (from UniProt P0DTC2) (domain or fragment)”, for which the t1/2 in experiment [1] was 2.75 min.
